In patent US11814447B2, “Peptide ligands for binding to EphA2” (BICYCLERD LIMITED, priority 2018, dated 2023) one finds Ki data, which are given here for 13 molecules.

The target in one test is T1, Human EphA2 (Homo sapiens, UniProt P29317).
T1 construct: EphA2 (Ecto); polyHis (C)
Briefly: Fluorescence polarisation competition binding assay. On the procedure: 1. Fluorescence Polarisation Measurements
(b) Competition Binding Assay
Peptides without a fluorescent tag were tested in competition with a peptide with a fluorescent tag and a known Kd (Table 2). Peptides were diluted to an appropriate concentration in assay buffer as described in the direct binding assay with a maximum of 5% DMSO, then serially diluted 1 in 2. […] Measurements were conducted as for the direct binding assay, however the gain was determined prior to the first measurement. Data analysis was in Systat Sigmaplot version 12.0 where the mP values were fit to a user defined cubic equation to generate a Ki value: f=y min+(y max−y min)/Lig*((Lig*((2*((Klig+Kcomp+Lig+Comp−Prot*c)^2−3*(Kcomp*(Lig−Prot*c)+Klig*(Comp−Prot*c)+Klig*Kcomp))^0.5*COS(ARCCOS((−2*(Klig+Kcomp+Lig+Comp−Prot*c)^3+9*(Klig+Kcomp+Lig+Comp−Prot*c)*(Kcomp*(Lig−Prot*c)+Klig*(Comp−Prot*c)+Klig*Kcomp)−27*(−1*Klig*Kcomp*Prot*c))/(2*(4(Klig+Kcomp+Lig+Comp−Prot*c)^2−3*(Kcomp*(Lig−Prot*c)+Klig*(Comp−Prot*c)+Klig*Kcomp))^3)^0.5)))/3))−(Klig+Kcomp+Lig+Comp−Prot*c)))/((3*Klig)+42*((Klig+Kcomp+Lig+Comp−Prot*c)^2−3*(Kcomp*(Lig−Prot*c)+Klig*(Comp−Prot*c)+Klig*Kcomp))^0.5*COS(ARCCOS((−2*(Klig+Kcomp+Lig+Comp−Prot*c)^3+9*(Klig+Kcomp+Lig+Comp−Prot*c)*(Kcomp*(Lig−Prot*c)+Klig*(Comp−Prot*c)+Klig*Kcomp)−27*(−1*Klig*Kcomp*Prot*c))/(2*(4(Klig+Kcomp+Lig+Comp−Prot*c)^2−3*(Kcomp*(Lig−Prot*c)+Klig*(Comp−Prot*c)+Klig*Kcomp))^3)^0.5)))/3))−(Klig+Kcomp+Lig+Comp−Prot*c)))).
“Lig”, “KLig” and “Prot” were all defined values relating to: fluorescent peptide concentration, the Kd of the fluorescent peptide and EphA2 concentration respectively.
(Fluorescence polarisation rises when a labelled molecule tumbles more slowly, as on binding a larger partner.)

Test [1] addresses T2, Human EphA2 (Ecto) (Human, UniProt P29317 24-537).
T2 construct: extracellular domain; in-house)
Briefly: FP competition; tracer Reference Compound C. The method, boiled down:
(§1)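 Unlabelled peptides competed against a fluorescently tagged peptide of known Kd. Peptides were diluted in direct-binding assay buffer (≤5% DMSO) and serially diluted 1 in 2. Read as in the direct binding assay, with gain set before the first read; mP values fit to a cubic equation to give Ki.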
T2 sequence (P29317 24-537): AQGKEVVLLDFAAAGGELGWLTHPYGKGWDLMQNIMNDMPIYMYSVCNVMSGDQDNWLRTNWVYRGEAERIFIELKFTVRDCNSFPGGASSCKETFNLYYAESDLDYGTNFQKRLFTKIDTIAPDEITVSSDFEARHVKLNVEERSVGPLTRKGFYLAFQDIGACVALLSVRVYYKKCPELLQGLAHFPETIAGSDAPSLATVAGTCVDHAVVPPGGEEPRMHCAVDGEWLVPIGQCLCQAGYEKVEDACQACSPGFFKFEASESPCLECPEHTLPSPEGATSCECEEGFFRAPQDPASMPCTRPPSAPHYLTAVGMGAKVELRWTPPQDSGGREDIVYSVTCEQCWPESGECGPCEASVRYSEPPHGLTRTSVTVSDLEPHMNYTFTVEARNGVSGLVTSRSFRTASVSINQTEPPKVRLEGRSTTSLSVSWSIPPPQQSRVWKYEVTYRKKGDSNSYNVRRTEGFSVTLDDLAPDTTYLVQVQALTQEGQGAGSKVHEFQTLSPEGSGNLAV

Test [2] addresses T2, Human EphA2 (Ecto). Put plainly: FP competition; tracer Reference Compound A. On the procedure: (§2) Peptides without a fluorescent tag were tested in competition with a peptide with a fluorescent tag and a known Kd (Table 2). Peptides were diluted to an appropriate concentration in assay buffer as described in the direct binding assay with a maximum of 5% DMSO, then serially diluted 1 in 2. […] Measurements were conducted as for the direct binding assay, however the gain was determined prior to the first measurement. Data analysis was in Systat Sigmaplot version 12.0 where the mP values were fit to a user defined cubic equation to generate a Ki value: […]

Test [3] deals with T2, Human EphA2 (Ecto). Briefly: FP competition; tracer Reference Compound B. On the procedure:
as §2

The target in test [4] is T3, Human EphA2 (Ecto) (Human, UniProt P29317 24-537).
T3 construct: extracellular domain
Briefly: FP competition, tracer Compound 18. The method, boiled down:
as §1
T3 sequence (P29317 24-537): as above

The target in test [5] is T4, Mouse EphA2 (Ecto) (Mouse, UniProt Q03145 26-538).
T4 construct: extracellular domain
Briefly: FP competition, tracer Compound 18. The method, boiled down:
as §1
T4 sequence (Q03145 26-538): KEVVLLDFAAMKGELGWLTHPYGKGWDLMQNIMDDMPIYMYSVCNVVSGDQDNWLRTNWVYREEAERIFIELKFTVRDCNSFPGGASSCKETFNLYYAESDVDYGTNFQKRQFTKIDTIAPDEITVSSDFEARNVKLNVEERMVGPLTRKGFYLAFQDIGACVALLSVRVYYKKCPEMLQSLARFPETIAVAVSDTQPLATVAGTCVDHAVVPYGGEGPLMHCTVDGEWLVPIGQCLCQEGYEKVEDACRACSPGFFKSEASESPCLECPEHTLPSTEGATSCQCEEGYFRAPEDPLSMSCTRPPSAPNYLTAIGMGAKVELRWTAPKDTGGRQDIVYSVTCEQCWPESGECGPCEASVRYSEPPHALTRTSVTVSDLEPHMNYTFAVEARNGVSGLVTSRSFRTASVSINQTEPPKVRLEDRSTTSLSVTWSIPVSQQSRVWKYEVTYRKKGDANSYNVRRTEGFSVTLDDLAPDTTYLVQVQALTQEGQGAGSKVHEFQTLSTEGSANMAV

For test [6], the target named is T5, Human EphA2 (Ecto), C-terminal polyHis (Human, UniProt P29317 24-537).
T5 construct: extracellular domain; also called EPH receptor A2; ephrin type-A receptor 2
Put plainly: fluorescence polarisation competition; competitor fluorescent Compound 1. As to the method: as §2

The target of test [7] is T6, Mouse EphA2 (Ecto) (Mouse, UniProt Q03145 26-538).
T6 construct: extracellular domain; C-terminal polyHis; not shown: Fc fusion or C-terminal polyHis
Put plainly: FP competition; tracer Reference Compound C. The method, boiled down:
as §1
T6 sequence (Q03145 26-538): as above

In test [8] the target is T5, Human EphA2 (Ecto), C-terminal polyHis. Briefly: fluorescence polarisation competition; competitor fluorescent Compound 66. The method, boiled down:
as §1

The target is the same in test [9]. Put plainly: fluorescence polarisation competition; competitor fluorescent Compound 12. As to the method:
as §2

Setting [10] is: read-out: Ki, nM ± 95% CI Human EphA2 Fluorescent peptide Compound 18, Table 9, Ala scan peptides.
The mark [11] stands for this setting: read-out: Ki, nM ± 95% CI, Human EphA2, competition binding assay, fluorescent peptide Compound 18, TBMB scaffold reference peptides.

Read-outs that look alike come from different tables or passages of the source. Starred links: 1 amine or outer side, 2 acyl side, 3 side chain; linkers in the order of their positions; H or OH if unused. Positions of bridges follow the written chain, without caps; N, C: chain ends. Non-standard residues stand in square brackets, D forms with d. Primed or numbered codes have the meaning given here. No end group written: not given here. TBMB′ = 1,3,5-tris(bromomethyl)benzene, 1,3,5-tris(methylene)benzene core, three thioethers to Cys; TATA = O=C(CC[*:1])N1CN(C(=O)CC[*:2])CN(C(=O)CC[*:3])C1; TBMB = c1c(C[*:1])cc(C[*:3])cc1C[*:2]; Sar = CNCC(=O)O

T1 sequence (P29317 24-537 limits assumed): as the sequence (P29317 24-537) above
T5 sequence (P29317 24-537): as above

What is called Ki is the equilibrium dissociation constant of an inhibitor or competing ligand from its target. On to “ADVHCPWGPFWC[dA]VNRPGCA (cysteine pairing not given here) [Compound 154]”, for which the Ki on Human EphA2 (setting [10]) and on Human EphA2 (setting [11]) was 101 nM each time.
Turning to “ADVHCPWGPFWCPV[dA]RPGCA (cysteine pairing not given here) [Compound 155]”, the Ki at Human EphA2 (setting [10]) and at Human EphA2 (setting [11]) was 2 nM throughout.

B1: Bicycle Compound Number 32 (TATA scaffold), ACTSCWAYPDSFCA (peptide)
peptide: ACTSCWAYPDSFCA
modifications: linker 2-5-13 via TATA
As to B1, the Ki came out at 232 nM in the test with Human EphA2 (Ecto) [1] and 151 nM in the test with Human EphA2 (Ecto) [2].

B2: Bicycle Compound Number 30 (TATA scaffold), ACQPSNHCAFMNYCA (peptide)
peptide: ACQPSNHCAFMNYCA
modifications: linker 2-8-14 via TATA
In the case of B2, the Ki with Human EphA2 (Ecto) [3] turned out to be 187 nM; with Human EphA2 (Ecto) [2], 137 nM.

B3: Bicycle Compound 158 (peptide)
peptide: Ac-[Sar][Sar]A[dD]VTCPWGPFWCPVNRPGC
modifications: linker 7-14-21 via TBMB′
As to B3, the Ki with Human EphA2 (Ecto) [4] was found to be 2.05 nM; with Mouse EphA2 (Ecto) [5], 2.2 nM.

B4: Bicycle Compound 225 (peptide)
peptide: Ac-[Sar][Sar]H[dD]VPCPWGPFWCPVNRPGC
modifications: linker 7-14-21 via TBMB
As to B4, the Ki was determined as 1 nM in the test with Human EphA2 (Ecto) [4] and 2.08 nM with Mouse EphA2 (Ecto) [5].

B5: Bicycle Compound Number 29 (TATA scaffold), ACYVGKECAYMNVCA (peptide)
peptide: ACYVGKECAYMNVCA
modifications: linker 2-8-14 via TATA
B5: the Ki in the test with Human EphA2 (Ecto) [1] was found to be 210 nM; with Human EphA2 (Ecto) [3], 107 nM; with Human EphA2 (Ecto) [2] it was 87.7 nM.

B6: Bicycle Compound Number 32 (TBMB scaffold) (peptide)
peptide: ACRNIPTMCPFGPVWCA
modifications: linker 2-9-16 via TBMB
notes: also called Compound 32
B6 yielded a Ki in test [6] of 83.4 nM.

B7: Bicycle Compound Number 78 (TATA scaffold), Ac-CPLVNPLCLHPGWTCL(D-His)G-Sar6-(D-K) (peptide)
peptide: CPLVNPLCLHPGWTCLHGXXXXXXK
modifications: N-terminal acetyl; H17 = D-His; X at 19-24 = Sar; K25 = D-Lys; 3 Cys thioether-linked to TATA scaffold
In the case of B7, the Ki was 115 nM with Mouse EphA2 (Ecto) [7] and 15.6 nM with Human EphA2 (Ecto) [1].

B8: Bicycle Compound Number 66 (BCY6099) (TATA scaffold), (β-Ala)-Sar10-ARDCPLVNPLCLHPGWTC (peptide)
peptide: XXXXXXXXXXXARDCPLVNPLCLHPGWTC
modifications: N-terminal (β-Ala)-Sar10; 3 Cys thioether-linked to TATA scaffold
B8: the Ki was found to be 57.6 nM with Mouse EphA2 (Ecto) [7] and 4.94 nM with Human EphA2 (Ecto) [1].

B9: Bicycle Compound Number 31 (TATA scaffold), ACSPTPACAVQNLCA (peptide)
peptide: ACSPTPACAVQNLCA
modifications: linker 2-8-14 via TATA
In the case of B9, the Ki with Human EphA2 (Ecto) [1] was determined as 223 nM; with Human EphA2 (Ecto) [3], 177 nM.

B10: Bicycle Compound Number 45 (TBMB scaffold) (peptide)
peptide: ACPWGPAWCPVNRPGCAGAAA
modifications: linker 2-9-16 via TBMB (inferred)
notes: also called Compound 45
Take B10: the values for the Ki in test [8] and in [9] were 117 nM and 99.2 nM, respectively.

B11: Bicycle Compound Number 92 (TATA scaffold), Ac-CPLVNPLCLHPGWSC(HArg)GQ-Sar6-(D-K) (peptide)
peptide: CPLVNPLCLHPGWSCXGQXXXXXXK
modifications: N-terminal acetyl; X16 = HArg (homoarginine); X at 19-24 = Sar; K25 = D-Lys; 3 Cys thioether-linked to TATA scaffold
With B11, the Ki with Mouse EphA2 (Ecto) [7] was found to be 75.3 nM; with Human EphA2 (Ecto) [1], 10.6 nM.
